Source: publication doi:10.64898/2025.12.22.695782
Where two headings read alike, the source gives them in different places.

Tests used:
Experiment in all cases: NMR HSQC titration
TDP-43 CTD WT [1] = molecular target: T1, TDP-43 CTD WT (Homo sapiens, UniProt Q13148 267-414)
TDP-43 CTD WT [2] = molecular target: T1, TDP-43 CTD WT; remark: listed apart in the source
TDP-43 CTD WT [3] = molecular target: T1, TDP-43 CTD WT; remark: listed apart in the source
TDP-43 CTD WT [4] = molecular target: T1, TDP-43 CTD WT; remark: listed apart in the source
TDP-43 CTD WT [5] = molecular target: T1, TDP-43 CTD WT; remark: listed apart in the source
TDP-43 CTD WT [6] = molecular target: T1, TDP-43 CTD WT; remark: listed apart in the source
TDP-43 CTD WT [7] = molecular target: T1, TDP-43 CTD WT; remark: listed apart in the source

T1 sequence (Q13148 267-414): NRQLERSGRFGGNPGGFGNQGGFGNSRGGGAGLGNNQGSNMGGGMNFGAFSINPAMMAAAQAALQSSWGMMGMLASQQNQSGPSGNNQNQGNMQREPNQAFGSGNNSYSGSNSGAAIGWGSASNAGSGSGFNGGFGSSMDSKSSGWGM

Question: Does TGTGTGTGTGTGTGTGTGTGTGTGTGTGTGTGTG (ssDNA) [(TG)17] bind (TDP-43 CTD WT [1])?
Answer: binds

Question: Does GCTTATGGGGAGGGTGGGGAGGGTGGGGAAGGTG (structured_DNA) [c-Myc G4] bind (TDP-43 CTD WT [2])?
Answer: binds

Question: Does CCCCCCCCCCCC (structured_DNA) [dC12] bind (TDP-43 CTD WT [3])?
Answer: binds

Question: Does AAAAAAAAAAAA (ssDNA) [dA12] bind (TDP-43 CTD WT [4])?
Answer: binds

Question: Does UUUUUUUUUUUU (ssDNA, deoxyuridine (DNA backbone) throughout) [dU12] bind (TDP-43 CTD WT [5])?
Answer: binds

Question: Does CACCTTCCCCACCCTCCCCACCCTCCCCATAAGC (structured_DNA) [c-Myc I-motif] bind (TDP-43 CTD WT [6])?
Answer: binds

Question: Does GGGGGGGGGGGG (structured_DNA) [dG12] bind (TDP-43 CTD WT [3])?
Answer: binds

Question: Does TTTTTTTTTTTT (ssDNA) [dT12] bind (TDP-43 CTD WT [7])?
Answer: binds
